Laboratory results as given in the supplement of paper PMC10724198.
± gives the standard deviation of the averaged measurements.

Legend:
Saccharomyces cerevisiae [1] = experiment: protein stability index of tFT-peptide fusion (C-terminal peptide) (PSI (0-1 scale)); higher = more stable (slower turnover); conditions: genetic background: wild type; temperature: 30 C
Saccharomyces cerevisiae [2] = experiment: as above
Experimental: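 MPS profiling in S. cerevisiae of the tFT-X12 degron library: putative degron peptides plus stable controls, 12 aa, fused to the C-terminus of a sfGFP-mCherry timer. Cells are FACS-sorted into 8 mCherry/sfGFP bins and deep-sequenced. PSI runs from 0 (unstable) to 1 (stable). Backgrounds are wild type, das1Δ and doa10Δ at 30 °C, and wild type, das1Δ, cdc34-1 and cdc53-1 at 37 °C; 2-3 technical replicates each.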

[3] = genetic background: cdc34-1, temperature: 37 C
[4] = genetic background: cdc53-1, temperature: 37 C
[5] = genetic background: das1 deletion, temperature: 30 C
[6] = genetic background: das1 deletion, temperature: 37 C
[7] = genetic background: doa10 deletion, temperature: 30 C
[8] = genetic background: wild type, temperature: 30 C
[9] = genetic background: wild type, temperature: 37 C
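Note: PSI is a weighted mean of sequencing reads over stability bins, variants kept only with over 10 reads, mCherry proximal and sfGFP distal, peptide attached via GGGS linker.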

| Sequence | protein stability index (Saccharomyces cerevisiae [1]) | protein stability index (Saccharomyces cerevisiae [2]; [3]) | protein stability index (Saccharomyces cerevisiae [2]; [4]) | protein stability index (Saccharomyces cerevisiae [2]; [5]) | protein stability index (Saccharomyces cerevisiae [2]; [6]) | protein stability index (Saccharomyces cerevisiae [2]; [7]) | protein stability index (Saccharomyces cerevisiae [2]; [8]) | protein stability index (Saccharomyces cerevisiae [2]; [9]) |
| --- | --- | --- | --- | --- | --- | --- | --- | --- |
| LGDPPCRMIVVR | 0.466 ± 0.033 | 0.532 ± 0.026 | 0.58581 ± 4.2e-05 | 0.353 ± 0.038 | 0.5869 ± 0.0044 | 0.339 ± 0.011 | 0.376 ± 0.026 | 0.558 ± 0.0075 |
| LGGVEDRWRTAT | 0.365 ± 0.0037 | 0.653 ± 0.05 | 0.704 ± 0.0094 | 0.693 ± 0.032 | 0.7227 ± 0.0051 | 0.261 ± 0.016 | 0.296 ± 0.025 | 0.534 ± 0.008 |
| LGRLDYKRMKRA | 0.533 ± 0.076 | 0.7464 ± 0.0014 | 0.748 ± 0.024 | 0.641 ± 0.033 | 0.7434 ± 0.0068 | 0.477 ± 0.017 | 0.51 ± 0.021 | 0.618 ± 0.046 |
| LGSYIFVVVIYF | 0.283 ± 0.15 | 0.152 ± 0.011 | 0.228 ± 0.0032 | 0.168 ± 0.032 | 0.291 ± 0.0044 | 0.141 ± 0.0079 | 0.143 ± 0.033 | 0.253 ± 0.0056 |
| LGSYVWVFVYFW | 0.187 ± 0.051 | 0.159 ± 0.022 | 0.258 ± 0.0054 | 0.155 ± 0.039 | 0.323 ± 0.01 | 0.148 ± 0.0054 | 0.151 ± 0.028 | 0.267 ± 0.025 |
| LHIHGAGIVCAG | 0.467 ± 0.028 | 0.549 ± 0.026 | 0.584 ± 0.029 | 0.368 ± 0.032 | 0.5788 ± 0.001 | 0.318 ± 0.0044 | 0.374 ± 0.029 | 0.5491 ± 0.0022 |
| LICRFLFFVCVG | 0.394 ± 0.04 | 0.412 ± 0.024 | 0.451 ± 0.0053 | 0.377 ± 0.023 | 0.507 ± 0.0068 | 0.277 ± 0.011 | 0.278 ± 0.02 | 0.441 ± 0.03 |
| LILLTFTLRVPV | 0.361 ± 0.034 | 0.192 ± 0.0027 | 0.381 ± 0.046 | 0.233 ± 0.02 | 0.4028 ± 0.0024 | 0.2056 ± 0.001 | 0.227 ± 0.026 | 0.362 ± 0.018 |
| LLCLCSLPVFAS | 0.356 ± 0.016 | 0.317 ± 0.014 | 0.319 ± 0.029 | 0.26 ± 0.046 | 0.4118 ± 0.0028 | 0.223 ± 0.009 | 0.27 ± 0.018 | 0.368 ± 0.0076 |
| LLFLLSPFNFAV | 0.328 ± 0.07 | 0.651 ± 0.035 | 0.726 ± 0.0084 | 0.63 ± 0.022 | 0.737 ± 0.0093 | 0.2535 ± 0.0025 | 0.303 ± 0.017 | 0.524 ± 0.03 |
| LLFTFSLSFFFR | 0.445 ± 0.014 | 0.405 ± 0.036 | 0.467 ± 0.0087 | 0.445 ± 0.048 | 0.438 ± 0.0076 | 0.458 ± 0.018 | 0.42 ± 0.022 | 0.45 ± 0.022 |
| LLLHFMFSIFWF | 0.378 ± 0.023 | 0.3811 ± 0.00039 | 0.375 ± 0.032 | 0.327 ± 0.034 | 0.4583 ± 0.0021 | 0.378 ± 0.011 | 0.324 ± 0.016 | 0.42 ± 0.011 |
| LLMWVLFDCHYS | 0.396 ± 0.012 | 0.39 ± 0.017 | 0.542 ± 0.034 | 0.318 ± 0.035 | 0.552 ± 0.011 | 0.306 ± 0.01 | 0.322 ± 0.023 | 0.535 ± 0.013 |
| LLPTSVFLPSLF | 0.489 ± 0.0069 | 0.6907 ± 0.0038 | 0.7726 ± 0.0059 | 0.663 ± 0.012 | 0.768 ± 0.014 | 0.282 ± 0.0082 | 0.331 ± 0.021 | 0.578 ± 0.018 |
| LLRIFLPLLYLL | 0.194 ± 0.019 | 0.203 ± 0.062 | 0.199 ± 0.011 | 0.329 ± 0.037 | 0.387 ± 0.016 | 0.218 ± 0.0076 | 0.131 ± 0.021 | 0.2 ± 0.00044 |
| LLSFYFVLAYMV | 0.28 ± 0.056 | 0.357 ± 0.034 | 0.393 ± 0.026 | 0.32 ± 0.035 | 0.4765 ± 0.00078 | 0.197 ± 0.024 | 0.179 ± 0.02 | 0.3 ± 0.0065 |
| LLSYMVSLVVYL | 0.295 ± 0.0062 | 0.127 ± 0.04 | 0.231 ± 0.03 | 0.175 ± 0.032 | 0.338 ± 0.024 | 0.16 ± 0.028 | 0.166 ± 0.031 | 0.291 ± 0.004 |
| LLYYQVFKTRRL | 0.406 ± 0.25 | 0.674 ± 0.021 | 0.686 ± 0.037 | 0.63 ± 0.026 | 0.696 ± 0.034 | 0.3565 ± 0.0012 | 0.384 ± 0.022 | 0.5958 ± 0.0036 |
| LNQRGKRKYLIM | 0.452 ± 0.015 | 0.711 ± 0.058 | 0.751 ± 0.054 | 0.656 ± 0.038 | 0.723 ± 0.016 | 0.372 ± 0.012 | 0.412 ± 0.024 | 0.561 ± 0.034 |
| LNTVALIRIVVS | 0.236 ± 0.006 | 0.0601 ± 0.033 | 0.132 ± 0.015 | 0.18 ± 0.021 | 0.234 ± 0.0055 | 0.125 ± 0.015 | 0.137 ± 0.036 | 0.19 ± 0.008 |

| Sequence | protein stability index (Saccharomyces cerevisiae [1]) | protein stability index (Saccharomyces cerevisiae [2]; [3]) | protein stability index (Saccharomyces cerevisiae [2]; [4]) | protein stability index (Saccharomyces cerevisiae [2]; [5]) | protein stability index (Saccharomyces cerevisiae [2]; [6]) | protein stability index (Saccharomyces cerevisiae [2]; [7]) | protein stability index (Saccharomyces cerevisiae [2]; [8]) | protein stability index (Saccharomyces cerevisiae [2]; [9]) |
| --- | --- | --- | --- | --- | --- | --- | --- | --- |
| LPILFPAALRLY | 0.44 ± 0.02 | 0.552 ± 0.0097 | 0.577 ± 0.028 | 0.521 ± 0.025 | 0.604 ± 0.01 | 0.267 ± 0.013 | 0.285 ± 0.026 | 0.455 ± 0.029 |
| LPPPYSPRLFHN | 0.241 ± 0.1 | 0.552 ± 0.065 | 0.7103 ± 0.0065 | 0.699 ± 0.014 | 0.755 ± 0.022 | 0.146 ± 0.016 | 0.166 ± 0.016 | 0.265 ± 0.01 |
| LPTVSRPGALIC | 0.253 ± 0.013 | 0.562 ± 0.016 | 0.689 ± 0.032 | 0.626 ± 0.033 | 0.69 ± 0.011 | 0.144 ± 0.0049 | 0.192 ± 0.02 | 0.34 ± 0.038 |
| LRCRAATSRTVS | 0.504 ± 0.04 | 0.69 ± 0.029 | 0.738 ± 0.015 | 0.6731 ± 0.002 | 0.726 ± 0.03 | 0.391 ± 0.015 | 0.446 ± 0.025 | 0.643 ± 0.0087 |
| LRNYKCLRLLIC | 0.0682 ± 0.096 | 0.293 ± 0.009 | 0.476 ± 0.0082 | 0.394 ± 0.028 | 0.545 ± 0.022 | 0.0736 ± 0.0054 | 0.0688 ± 0.012 | 0.0753 ± 0.012 |
| LRPTFLLLFRPL | 0.493 ± 0.096 | 0.292 ± 0.022 | 0.283 ± 0.037 | 0.377 ± 0.032 | 0.474 ± 0.011 | 0.618 ± 0.004 | 0.407 ± 0.017 | 0.4302 ± 0.0023 |
| LRSLLIIYLLIF | 0.279 ± 0.039 | 0.2561 ± 0.0023 | 0.292 ± 0.025 | 0.253 ± 0.038 | 0.404 ± 0.0084 | 0.203 ± 0.0043 | 0.192 ± 0.0044 | 0.31 ± 0.012 |
| LSACYSRYVFVS | 0.135 ± 0.0089 | 0.398 ± 0.039 | 0.553 ± 0.038 | 0.472 ± 0.016 | 0.60517 ± 0.00057 | 0.0584 ± 0.017 | 0.093 ± 0.023 | 0.115 ± 0.012 |
| LSASFYFVFFSN | 0.292 ± 0.043 | 0.56 ± 0.013 | 0.6731 ± 0.0018 | 0.506 ± 0.023 | 0.6287 ± 0.006 | 0.155 ± 0.032 | 0.188 ± 0.0085 | 0.383 ± 0.021 |
| LSILLFVQFFPP | 0.305 ± 0.0053 | 0.317 ± 0.023 | 0.371 ± 0.0032 | 0.27 ± 0.021 | 0.4113 ± 0.00046 | 0.24 ± 0.0013 | 0.253 ± 0.012 | 0.384 ± 0.0082 |
| LSLPTPLPSPPA | 0.48 ± 0.022 | 0.656 ± 0.044 | 0.695 ± 0.041 | 0.457 ± 0.027 | 0.629 ± 0.015 | 0.449 ± 0.019 | 0.456 ± 0.017 | 0.591 ± 0.0092 |
| LSPLSPLLFRLI | 0.296 ± 0.016 | 0.482 ± 0.04 | 0.509 ± 0.012 | 0.516 ± 0.055 | 0.62 ± 0.018 | 0.249 ± 0.0059 | 0.226 ± 0.013 | 0.37479 ± 6.6e-05 |
| LSRLIFKVSVLM | 0.445 ± 0.015 | 0.57 ± 0.0078 | 0.602 ± 0.0096 | 0.504 ± 0.026 | 0.5999 ± 0.0032 | 0.237 ± 0.032 | 0.231 ± 0.025 | 0.416 ± 0.038 |
| LSRRFSLALFWT | 0.279 ± 0.012 | 0.57 ± 0.016 | 0.683 ± 0.051 | 0.654 ± 0.0085 | 0.707 ± 0.026 | 0.1762 ± 0.0015 | 0.197 ± 0.031 | 0.317 ± 0.0078 |
| LSSRGGRCRRLV | 0.481 ± 0.037 | 0.714 ± 0.059 | 0.727 ± 0.028 | 0.652 ± 0.016 | 0.7555 ± 0.0039 | 0.321 ± 0.0092 | 0.37 ± 0.013 | 0.588 ± 0.017 |
| LVFAFFLLSFFI | 0.425 ± 0.0078 | 0.478 ± 0.035 | 0.554 ± 0.015 | 0.478 ± 0.047 | 0.549 ± 0.00087 | 0.481 ± 0.025 | 0.466 ± 0.027 | 0.541 ± 0.02 |
| LVFSFFFLFFFM | 0.394 ± 0.044 | 0.449 ± 0.053 | 0.47 ± 0.029 | 0.375 ± 0.03 | 0.46047 ± 0.00043 | 0.375 ± 0.027 | 0.287 ± 0.05 | 0.442 ± 0.11 |
| LVLFYLWSSVWA | 0.3819 ± 0.0021 | 0.4 ± 0.014 | 0.445 ± 0.0055 | 0.29 ± 0.032 | 0.4726 ± 0.0018 | 0.251 ± 0.01 | 0.279 ± 0.034 | 0.441 ± 0.0095 |
| LVLLIQKFLTDK | 0.553 ± 0.086 | 0.7442 ± 0.0063 | 0.7187 ± 0.0016 | 0.609 ± 0.024 | 0.695 ± 0.079 | 0.59 ± 0.017 | 0.617 ± 0.052 | 0.675 ± 0.015 |
